Consider ten molecules from patent US20230235013A1 (MABSOLVE, published 2023).

B1: anti-CD20 human IgG1 L234E/L235G/G236R (antibody)
heavy: QVQLQQPGAELVKPGASVKMSCKASGYTFTSYNMHWVKQTPGRGLEWIGAIYPGNGDTSYNQKFKGKATLTADKSSSTAYMQLSSLTSEDSAVYYCARSTYYGGDWYFNVWGAGTTVTVSSASTKGPSVFPLAPSSKSTSGGTAALGCLVKDYFPEPVTVSWNSGALTSGVHTFPAVLQSSGLYSLSSVVTVPSSSLGTQTYICNVNHKPSNTKVDKKVEPKSCDKTHTCPPCPAPEEGRGPSVFLFPPKPKDTLMISRTPEVTCVVVDVSHEDPEVKFNWYVDGVEVHNAKTKPREEQYNSTYRVVSVLTVLHQDWLNGKEYKCKVSNKALPAPIEKTISKAKGQPREPQVYTLPPSRDELTKNQVSLTCLVKGFYPSDIAVEWESNGQPENNYKTTPPVLDSDGSFFLYSKLTVDKSRWQQGNVFSCSVMHEALHNHYTQKSLSLSPGK
light: QIVLSQSPAILSASPGEKVTMTCRASSSVSYIHWFQQKPGSSPKPWIYATSNLASGVPVRFSGSGSGTSYSLTISRVEAEDAATYYCQQWTSNPPTFGGGTKLEIKRTVAAPSVFIFPPSDEQLKSGTASVVCLLNNFYPREAKVQWKVDNALQSGNSQESVTEQDSKDSTYSLSSTLTLSKADYEKHKVYACEVTHQGLSSPVTKSFNRGEC
notes: also called 1-35; copies: 2 + 2
B2: anti-CD20 human IgG1 L234E/L235R/G236R (antibody)
heavy: QVQLQQPGAELVKPGASVKMSCKASGYTFTSYNMHWVKQTPGRGLEWIGAIYPGNGDTSYNQKFKGKATLTADKSSSTAYMQLSSLTSEDSAVYYCARSTYYGGDWYFNVWGAGTTVTVSSASTKGPSVFPLAPSSKSTSGGTAALGCLVKDYFPEPVTVSWNSGALTSGVHTFPAVLQSSGLYSLSSVVTVPSSSLGTQTYICNVNHKPSNTKVDKKVEPKSCDKTHTCPPCPAPEERRGPSVFLFPPKPKDTLMISRTPEVTCVVVDVSHEDPEVKFNWYVDGVEVHNAKTKPREEQYNSTYRVVSVLTVLHQDWLNGKEYKCKVSNKALPAPIEKTISKAKGQPREPQVYTLPPSRDELTKNQVSLTCLVKGFYPSDIAVEWESNGQPENNYKTTPPVLDSDGSFFLYSKLTVDKSRWQQGNVFSCSVMHEALHNHYTQKSLSLSPGK
light: QIVLSQSPAILSASPGEKVTMTCRASSSVSYIHWFQQKPGSSPKPWIYATSNLASGVPVRFSGSGSGTSYSLTISRVEAEDAATYYCQQWTSNPPTFGGGTKLEIKRTVAAPSVFIFPPSDEQLKSGTASVVCLLNNFYPREAKVQWKVDNALQSGNSQESVTEQDSKDSTYSLSSTLTLSKADYEKHKVYACEVTHQGLSSPVTKSFNRGEC
notes: also called 1-43; copies: 2 + 2
B3: anti-CD20 human IgG1 L234E/L235Q/G236R (antibody)
heavy: QVQLQQPGAELVKPGASVKMSCKASGYTFTSYNMHWVKQTPGRGLEWIGAIYPGNGDTSYNQKFKGKATLTADKSSSTAYMQLSSLTSEDSAVYYCARSTYYGGDWYFNVWGAGTTVTVSSASTKGPSVFPLAPSSKSTSGGTAALGCLVKDYFPEPVTVSWNSGALTSGVHTFPAVLQSSGLYSLSSVVTVPSSSLGTQTYICNVNHKPSNTKVDKKVEPKSCDKTHTCPPCPAPEEQRGPSVFLFPPKPKDTLMISRTPEVTCVVVDVSHEDPEVKFNWYVDGVEVHNAKTKPREEQYNSTYRVVSVLTVLHQDWLNGKEYKCKVSNKALPAPIEKTISKAKGQPREPQVYTLPPSRDELTKNQVSLTCLVKGFYPSDIAVEWESNGQPENNYKTTPPVLDSDGSFFLYSKLTVDKSRWQQGNVFSCSVMHEALHNHYTQKSLSLSPGK
light: QIVLSQSPAILSASPGEKVTMTCRASSSVSYIHWFQQKPGSSPKPWIYATSNLASGVPVRFSGSGSGTSYSLTISRVEAEDAATYYCQQWTSNPPTFGGGTKLEIKRTVAAPSVFIFPPSDEQLKSGTASVVCLLNNFYPREAKVQWKVDNALQSGNSQESVTEQDSKDSTYSLSSTLTLSKADYEKHKVYACEVTHQGLSSPVTKSFNRGEC
notes: also called 1-42; copies: 2 + 2
B4: anti-CD20 human IgG1 L234E/L235V/G236R (antibody)
heavy: QVQLQQPGAELVKPGASVKMSCKASGYTFTSYNMHWVKQTPGRGLEWIGAIYPGNGDTSYNQKFKGKATLTADKSSSTAYMQLSSLTSEDSAVYYCARSTYYGGDWYFNVWGAGTTVTVSSASTKGPSVFPLAPSSKSTSGGTAALGCLVKDYFPEPVTVSWNSGALTSGVHTFPAVLQSSGLYSLSSVVTVPSSSLGTQTYICNVNHKPSNTKVDKKVEPKSCDKTHTCPPCPAPEEVRGPSVFLFPPKPKDTLMISRTPEVTCVVVDVSHEDPEVKFNWYVDGVEVHNAKTKPREEQYNSTYRVVSVLTVLHQDWLNGKEYKCKVSNKALPAPIEKTISKAKGQPREPQVYTLPPSRDELTKNQVSLTCLVKGFYPSDIAVEWESNGQPENNYKTTPPVLDSDGSFFLYSKLTVDKSRWQQGNVFSCSVMHEALHNHYTQKSLSLSPGK
light: QIVLSQSPAILSASPGEKVTMTCRASSSVSYIHWFQQKPGSSPKPWIYATSNLASGVPVRFSGSGSGTSYSLTISRVEAEDAATYYCQQWTSNPPTFGGGTKLEIKRTVAAPSVFIFPPSDEQLKSGTASVVCLLNNFYPREAKVQWKVDNALQSGNSQESVTEQDSKDSTYSLSSTLTLSKADYEKHKVYACEVTHQGLSSPVTKSFNRGEC
notes: also called 1-46; 2-16; copies: 2 + 2
B5: anti-CD20 human IgG1 L234E/L235H/G236R (antibody)
heavy: QVQLQQPGAELVKPGASVKMSCKASGYTFTSYNMHWVKQTPGRGLEWIGAIYPGNGDTSYNQKFKGKATLTADKSSSTAYMQLSSLTSEDSAVYYCARSTYYGGDWYFNVWGAGTTVTVSSASTKGPSVFPLAPSSKSTSGGTAALGCLVKDYFPEPVTVSWNSGALTSGVHTFPAVLQSSGLYSLSSVVTVPSSSLGTQTYICNVNHKPSNTKVDKKVEPKSCDKTHTCPPCPAPEEHRGPSVFLFPPKPKDTLMISRTPEVTCVVVDVSHEDPEVKFNWYVDGVEVHNAKTKPREEQYNSTYRVVSVLTVLHQDWLNGKEYKCKVSNKALPAPIEKTISKAKGQPREPQVYTLPPSRDELTKNQVSLTCLVKGFYPSDIAVEWESNGQPENNYKTTPPVLDSDGSFFLYSKLTVDKSRWQQGNVFSCSVMHEALHNHYTQKSLSLSPGK
light: QIVLSQSPAILSASPGEKVTMTCRASSSVSYIHWFQQKPGSSPKPWIYATSNLASGVPVRFSGSGSGTSYSLTISRVEAEDAATYYCQQWTSNPPTFGGGTKLEIKRTVAAPSVFIFPPSDEQLKSGTASVVCLLNNFYPREAKVQWKVDNALQSGNSQESVTEQDSKDSTYSLSSTLTLSKADYEKHKVYACEVTHQGLSSPVTKSFNRGEC
notes: also called 1-36; 2-13; copies: 2 + 2
B6: anti-CD20 human IgG1 L234E/L235S/G236R (antibody)
heavy: QVQLQQPGAELVKPGASVKMSCKASGYTFTSYNMHWVKQTPGRGLEWIGAIYPGNGDTSYNQKFKGKATLTADKSSSTAYMQLSSLTSEDSAVYYCARSTYYGGDWYFNVWGAGTTVTVSSASTKGPSVFPLAPSSKSTSGGTAALGCLVKDYFPEPVTVSWNSGALTSGVHTFPAVLQSSGLYSLSSVVTVPSSSLGTQTYICNVNHKPSNTKVDKKVEPKSCDKTHTCPPCPAPEESRGPSVFLFPPKPKDTLMISRTPEVTCVVVDVSHEDPEVKFNWYVDGVEVHNAKTKPREEQYNSTYRVVSVLTVLHQDWLNGKEYKCKVSNKALPAPIEKTISKAKGQPREPQVYTLPPSRDELTKNQVSLTCLVKGFYPSDIAVEWESNGQPENNYKTTPPVLDSDGSFFLYSKLTVDKSRWQQGNVFSCSVMHEALHNHYTQKSLSLSPGK
light: QIVLSQSPAILSASPGEKVTMTCRASSSVSYIHWFQQKPGSSPKPWIYATSNLASGVPVRFSGSGSGTSYSLTISRVEAEDAATYYCQQWTSNPPTFGGGTKLEIKRTVAAPSVFIFPPSDEQLKSGTASVVCLLNNFYPREAKVQWKVDNALQSGNSQESVTEQDSKDSTYSLSSTLTLSKADYEKHKVYACEVTHQGLSSPVTKSFNRGEC
notes: also called 1-44; copies: 2 + 2
B7: anti-CD20 human IgG1 L234G/G236R (antibody)
heavy: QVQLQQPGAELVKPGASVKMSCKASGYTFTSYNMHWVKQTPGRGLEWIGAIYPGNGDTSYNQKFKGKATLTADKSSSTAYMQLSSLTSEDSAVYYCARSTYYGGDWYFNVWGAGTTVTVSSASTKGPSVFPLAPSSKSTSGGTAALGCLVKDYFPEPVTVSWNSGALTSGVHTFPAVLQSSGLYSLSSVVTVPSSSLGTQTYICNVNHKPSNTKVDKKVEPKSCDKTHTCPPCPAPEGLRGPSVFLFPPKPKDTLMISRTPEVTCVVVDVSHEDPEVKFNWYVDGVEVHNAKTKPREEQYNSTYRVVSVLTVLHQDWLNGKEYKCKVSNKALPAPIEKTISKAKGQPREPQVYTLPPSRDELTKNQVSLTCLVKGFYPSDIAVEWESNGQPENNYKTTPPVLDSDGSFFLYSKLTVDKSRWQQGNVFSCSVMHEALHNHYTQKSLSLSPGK
light: QIVLSQSPAILSASPGEKVTMTCRASSSVSYIHWFQQKPGSSPKPWIYATSNLASGVPVRFSGSGSGTSYSLTISRVEAEDAATYYCQQWTSNPPTFGGGTKLEIKRTVAAPSVFIFPPSDEQLKSGTASVVCLLNNFYPREAKVQWKVDNALQSGNSQESVTEQDSKDSTYSLSSTLTLSKADYEKHKVYACEVTHQGLSSPVTKSFNRGEC
notes: also called 1-54; 2-85; copies: 2 + 2
B8: anti-CD20 human IgG1 L234E/L235T/G236R (antibody)
heavy: QVQLQQPGAELVKPGASVKMSCKASGYTFTSYNMHWVKQTPGRGLEWIGAIYPGNGDTSYNQKFKGKATLTADKSSSTAYMQLSSLTSEDSAVYYCARSTYYGGDWYFNVWGAGTTVTVSSASTKGPSVFPLAPSSKSTSGGTAALGCLVKDYFPEPVTVSWNSGALTSGVHTFPAVLQSSGLYSLSSVVTVPSSSLGTQTYICNVNHKPSNTKVDKKVEPKSCDKTHTCPPCPAPEETRGPSVFLFPPKPKDTLMISRTPEVTCVVVDVSHEDPEVKFNWYVDGVEVHNAKTKPREEQYNSTYRVVSVLTVLHQDWLNGKEYKCKVSNKALPAPIEKTISKAKGQPREPQVYTLPPSRDELTKNQVSLTCLVKGFYPSDIAVEWESNGQPENNYKTTPPVLDSDGSFFLYSKLTVDKSRWQQGNVFSCSVMHEALHNHYTQKSLSLSPGK
light: QIVLSQSPAILSASPGEKVTMTCRASSSVSYIHWFQQKPGSSPKPWIYATSNLASGVPVRFSGSGSGTSYSLTISRVEAEDAATYYCQQWTSNPPTFGGGTKLEIKRTVAAPSVFIFPPSDEQLKSGTASVVCLLNNFYPREAKVQWKVDNALQSGNSQESVTEQDSKDSTYSLSSTLTLSKADYEKHKVYACEVTHQGLSSPVTKSFNRGEC
notes: also called 1-45; copies: 2 + 2
B9: anti-CD20 human IgG1 L234G/L235A/G236R (antibody)
heavy: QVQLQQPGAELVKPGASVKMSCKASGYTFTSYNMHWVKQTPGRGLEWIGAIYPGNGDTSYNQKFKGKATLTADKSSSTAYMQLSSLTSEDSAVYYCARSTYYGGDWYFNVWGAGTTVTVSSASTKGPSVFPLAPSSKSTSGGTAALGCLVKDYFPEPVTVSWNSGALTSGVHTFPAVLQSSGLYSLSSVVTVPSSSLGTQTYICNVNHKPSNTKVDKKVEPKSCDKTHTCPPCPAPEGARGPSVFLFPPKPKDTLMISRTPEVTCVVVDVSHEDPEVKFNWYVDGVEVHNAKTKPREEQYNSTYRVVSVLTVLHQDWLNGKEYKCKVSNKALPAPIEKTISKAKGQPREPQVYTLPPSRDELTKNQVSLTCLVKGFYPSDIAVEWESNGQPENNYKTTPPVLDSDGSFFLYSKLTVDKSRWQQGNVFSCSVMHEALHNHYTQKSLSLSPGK
light: QIVLSQSPAILSASPGEKVTMTCRASSSVSYIHWFQQKPGSSPKPWIYATSNLASGVPVRFSGSGSGTSYSLTISRVEAEDAATYYCQQWTSNPPTFGGGTKLEIKRTVAAPSVFIFPPSDEQLKSGTASVVCLLNNFYPREAKVQWKVDNALQSGNSQESVTEQDSKDSTYSLSSTLTLSKADYEKHKVYACEVTHQGLSSPVTKSFNRGEC
notes: also called 1-47; copies: 2 + 2
B10: anti-CD20 human IgG1 L234E/L235K/G236R (antibody)
heavy: QVQLQQPGAELVKPGASVKMSCKASGYTFTSYNMHWVKQTPGRGLEWIGAIYPGNGDTSYNQKFKGKATLTADKSSSTAYMQLSSLTSEDSAVYYCARSTYYGGDWYFNVWGAGTTVTVSSASTKGPSVFPLAPSSKSTSGGTAALGCLVKDYFPEPVTVSWNSGALTSGVHTFPAVLQSSGLYSLSSVVTVPSSSLGTQTYICNVNHKPSNTKVDKKVEPKSCDKTHTCPPCPAPEEKRGPSVFLFPPKPKDTLMISRTPEVTCVVVDVSHEDPEVKFNWYVDGVEVHNAKTKPREEQYNSTYRVVSVLTVLHQDWLNGKEYKCKVSNKALPAPIEKTISKAKGQPREPQVYTLPPSRDELTKNQVSLTCLVKGFYPSDIAVEWESNGQPENNYKTTPPVLDSDGSFFLYSKLTVDKSRWQQGNVFSCSVMHEALHNHYTQKSLSLSPGK
light: QIVLSQSPAILSASPGEKVTMTCRASSSVSYIHWFQQKPGSSPKPWIYATSNLASGVPVRFSGSGSGTSYSLTISRVEAEDAATYYCQQWTSNPPTFGGGTKLEIKRTVAAPSVFIFPPSDEQLKSGTASVVCLLNNFYPREAKVQWKVDNALQSGNSQESVTEQDSKDSTYSLSSTLTLSKADYEKHKVYACEVTHQGLSSPVTKSFNRGEC
notes: also called 1-38; copies: 2 + 2

The assay concerns the target T1, Histidine-tagged recombinant human FcγRI (CD64) (human, UniProt P12314 16-288).
T1 construct: bought; also called Sino Biological Cat. No. 12056-H08H
The assay is described as follows: SPR, culture supernatant, captured His-FcγRI.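 Note: biacore T200 SPR at 25 °C, anti-His capture, supernatants of HEK293 cells expressing IgG1 Fc variants injected 1 min, reference-subtracted response read 55 s after injection start.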
On to B1, for which the Mean binding response turned out to be 71.2 RU. B2: the Mean binding response was 26.7 RU. As for B3, the Mean binding response worked out at 33.7 RU. For the molecule B4, the Mean binding response was found to be 18.4 RU. As for B5, the Mean binding response is 21.4 RU.

Consider B6, for which the Mean binding response worked out at 39.2 RU. The result for B7 reads 28.5 RU; that for B8, 29.6 RU. On to B9, for which the Mean binding response is 23 RU.

Turning to B10, the Mean binding response was found to be 34.1 RU.
